# Measured values from patent publication US20220154156A1, “PROTEINS AND METHODS FOR DISRUPTING BACTERIAL COMMUNICATION” (REGENTS OF THE UNIVERSITY OF MINNESOTA, priority 2019, published 2022).
# Where “and” joins values, the source holds several entries; their conditions need not be identical. Equal values may be shown once.
# B1: GcL: lactonase isolated from the thermophilic bacteria Geobacillus caldoxylosilyticus, SEQ ID NO:1 (protein, listed as Parageobacillus caldoxylosilyticus)
# chain: MTVKKLYFIPAGRCMLDHSSVNSALTPGKLLNLPVWCYLLETEEGPILVDTGMPESAVNNEGLFNGTFVEGQILPKMTEEDRIVNILKRVGYEPDDLLYIISSHLHFDHAGGNGAFTNTPIIVQRTEYEAALHREEYMKECILPHLNYKIIEGDYEVVPGVQLLYTPGHSPGHQSLFIETEQSGSVLLTIDASYTKENFEDEVPFAGFDPELALSSIKRLKEVVKKEKPIIFFGHDIEQEKSCRVFPEYI
# Legend:
# [1] = Lactonase assay (pH indicator, cresol purple), kinetic measurements; format: biochemical
# Experimental: Kinetic measurements. The determination of GcL catalytic efficiency was performed by using a microplate reader (Synergy HTX, BioTek, USA) and the software Gen5.1 over a range of substrates (FIG. 2). The reactions were operate in a 96-well plate at a path length of 5.8 mm for a 200 μl reaction volume at room temperature. The catalytic parameters were achieved by fitting the data to Michaelis-Menten equation with the Graph-Pad Prism 5 software. When, Vmax was not reached, the catalytic efficiency was determined by fitting the linear part of Michaelis-Menten plot to a linear regression using Graph-Pad Prism 5.
# Lactonase assay. The AHL lactonolysis consisting in the opening of the lactone ring generates a proton, and leads to an acidification of the media. This property allowed the characterization of the lactonases by using a pH indicator assay. To perform the experiment 5 μl of enzyme were added to a solution containing 10 μl of substrates at various concentrations and 185 μl of lactonase buffer (2.5 mM Bicine pH 8.3, 150 mM NaCl, 0.2 mM CoCl2, 0.2 mM cresol purple, 0.5% DMSO). This assay was performed at 25° C. and the time course of the lactones hydrolysis was recorded at 577 nm. The characterization of the enzyme was proceeding against a large panel of AHLs: C4-AHL, C6-AHL, C8-AHL, C10-AHL, 3-oxo-C8-AHL and against γ-Butyrolactone, γ-Heptalactone, γ-Nonalactone, γ-Decanolactone, δ-Valerolactone, δ-Octanolactone, δ-Nonalactone, δ-Decalactone, ε-Caprolactone, ε-Decalactone, Whiskey lactone.
# algae and Zebra mussels = assay: Antifouling activity of acrylic-lactonase coating, Lake Minnetonka, 1 month; conditions: 200 μg/mL, polycarbonate, controls BSA, copper oxide
# Experimental: Various polycarbonate samples were submerged in Lake Minnetonka (Tonka bay marina) for 1 month. Coatings were prepared with 200 μg/mL of control ingredients (BSA or copper oxide (CuO)) and of lactonases (SsoPox and GcL). Large zebra mussels are circled.
# We note that microscopy imaging highlights large differences in the surface colonization between the different treatments.
# Pseudomonas aeruginosa = assay: Caenorhabditis elegans infection models (slow-killing, paralysis); format: in vivo; conditions: dose-dependent
# Source text: FIG. 34A-34C show protection of Caenorhabditis elegans from infection by Pseudomonas aeruginosa by lactonases. Slow-killing, gut infection assay performed with P. aeruginosa. Lactonases SsoPox (A) and GcL (B) are sprayed in the petri dish plate, and final concentrations are given. (C) Paralysis assay by P. aeruginosa, and treatment with SsoPox. […] OP50 Escherichia coli strain serves as a non-virulent control.
# The protection by lactonases is dose-dependent (FIG. 34) in both models.
# soil bacterial community = assay: Different lactonases on soil microbial community (Example 8); format: cell-based; conditions: 7 days, vs inactive SsoPox 5A8
# Experimental: Principal component analysis (PCA) based on deep bacterial 16S rDNA sequences (Illumina V4 region).
# The same experiments as described above were performed on the same soil microbial community but with two different lactonases, GcL, and Ssopox W263I. These enzymes differ primarily by their substrate specificity. […] This is important because different bacteria use different AHLs to communicate. Indeed, The structure of AHLs vary a lot with respect to the length of N-acyl chains (from C4 to C18), the hydroxyl or oxo group of the acyl chain and the saturated or unsaturated state of the carbon chain^1. The hydrophobicity of AHLs relates to their passive diffusion through membranes. […] In fact, regulatory circuits may be interconnected, like in P. aeruginosa^6, and allow for compensatory responses: if the LasI/LasR system is inactivated, the RhlI/RhlR system can still control LasI/LasR-spectific functions^7.
# [2] = at 75° C.; cited from earlier work
molecule,measurement,setting,value
B1,substrate specificity,[1]; AHL acyl chain length,proficiently degrades lactones ranging from C4 to C12 AHLs
same,catalytic efficiencies,[1]; AHLs with both short and long acyl chains,10^4 to 10^6 M^−1·s^−1
same,Km,[1]; range over tested substrates (with the exception of C4-AHL),0.5 to 20 µM and 0.67 to 21.1 µM
same,inhibition of biofouling,algae and Zebra mussels,more efficient at inhibiting biofouling than controls
same,survival of Caenorhabditis elegans,Pseudomonas aeruginosa,increase survival
same,planktonic microbial community composition,soil bacterial community,induce differential planktonic microbial community biases
same,half-life,[2],152.5 ± 10 min
